The results in this text go back to US20170022269A1 (AbbVie / Abbott, published 2017).

Where a chain is given by its changes, count along the chain named.

Test [1] deals with T1, Aβ(20-42) globulomer (human).
T1 construct: also called truncated Aβ(20-42) globulomer; Aβ(20-42) globular oligomer
T1 peptide: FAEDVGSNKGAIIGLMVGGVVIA
As to the kind of experiment: dot blot densitometry, antibody 0.2 µg/ml; column Aβ(20-42) globulomer (reference). As for the experimental part:
(§1) Dot blot procedure: [0556] 1) 1 μl each of the different Aβ-standards (in their 5 serial dilutions) were dotted onto the nitrocellulose membrane in a distance of approximately 1 cm from each other. [0557] 2) The Aβ-standards dots were allowed to dry on the nitrocellulose membrane on air for at least 10 min at room temperature (RT)(=dot blot) [0558] 3) Blocking: [0559] The dot blot was incubated with 30 ml 5% low fat milk in TBS for 1.5 h at RT. [0560] 4) Washing: [0561] The blocking solution was discarded and the dot blot was incubated under shaking with 20 ml TTBS for 10 min at RT. [0562] 5) Antibody solution I: [0563] The washing buffer was discarded and the dot blot was incubated with antibody solution I for 2 h at RT [0564] 6) Washing: [0565] The antibody solution I was discarded and the dot blot was incubated under shaking with 20 ml TTBS for 10 min at RT. The washing solution was discarded and the dot blot was incubated under shaking with 20 ml TTBS for 10 min at RT. The washing solution was discarded and the dot blot was incubated under shaking with 20 ml TBS for 10 min at RT. [0566] 7) Antibody solution II: [0567] The washing buffer was discarded and the dot blot was incubated with antibody solution II overnight at RT [0568] 8) Washing: [0569] The antibody solution II was discarded and the dot blot was incubated under shaking with 20 ml TTBS for 10 min at RT. The washing solution was discarded and the dot blot was incubated under shaking with 20 ml TTBS for 10 min at RT. The washing solution was discarded and the dot blot was incubated under shaking with 20 ml TBS for 10 min at RT. [0570] 9) Development: [0571] The washing solution was discarded. The dot blot was developed with 10 ml BM Blue POD Substrate for 10 min. The development was stopped by intense washing of the dot blot with H₂O. Quantitative evaluation was done using a densitometric analysis (GS800 densitometer (BioRad) and software package Quantity one, Version […] (BioRad)) of the dot-intensity. […] This threshold value was determined for every dot-blot independently. The calculated value indicates the relation between recognition of Aβ(20-42) globulomer and the respective Aβ form for the antibody given

For test [2], the target named is T2, Aβ(12-42) globulomer (human).
T2 construct: also called truncated Aβ(12-42) globulomer
T2 peptide: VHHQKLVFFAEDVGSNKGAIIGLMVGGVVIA
As to the kind of experiment: dot blot densitometry, antibody 0.2 µg/ml; column Aβ(12-42) globulomer. As for the experimental part: as §1

For test [3], the target named is T3, Aβ(1-40) monomer (human).
T3 construct: also called monomeric Aβ(1-40); Aβ(1-40) monomer, 0.1% NH4OH
T3 sequence (peptide, as listed by the source): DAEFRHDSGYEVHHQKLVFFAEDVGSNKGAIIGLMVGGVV
As to the kind of experiment: dot blot densitometry, antibody 0.2 µg/ml; column Aβ(1-40) monomer, 0.1% NaOH. As to the method: as §1

In test [4] the target is T3, Aβ(1-40) monomer. The test is described as follows: dot blot on nitrocellulose. As for the experimental part: as §1
For test [5], the target named is T4, sAPPα (Sigma) (UniProt P05067-4 18-612, limits assumed).
T4 construct: Bought protein; also called Sigma cat. no; S9564
T4 sequence (P05067 other isoform, or with tags, fused parts or gaps limits assumed): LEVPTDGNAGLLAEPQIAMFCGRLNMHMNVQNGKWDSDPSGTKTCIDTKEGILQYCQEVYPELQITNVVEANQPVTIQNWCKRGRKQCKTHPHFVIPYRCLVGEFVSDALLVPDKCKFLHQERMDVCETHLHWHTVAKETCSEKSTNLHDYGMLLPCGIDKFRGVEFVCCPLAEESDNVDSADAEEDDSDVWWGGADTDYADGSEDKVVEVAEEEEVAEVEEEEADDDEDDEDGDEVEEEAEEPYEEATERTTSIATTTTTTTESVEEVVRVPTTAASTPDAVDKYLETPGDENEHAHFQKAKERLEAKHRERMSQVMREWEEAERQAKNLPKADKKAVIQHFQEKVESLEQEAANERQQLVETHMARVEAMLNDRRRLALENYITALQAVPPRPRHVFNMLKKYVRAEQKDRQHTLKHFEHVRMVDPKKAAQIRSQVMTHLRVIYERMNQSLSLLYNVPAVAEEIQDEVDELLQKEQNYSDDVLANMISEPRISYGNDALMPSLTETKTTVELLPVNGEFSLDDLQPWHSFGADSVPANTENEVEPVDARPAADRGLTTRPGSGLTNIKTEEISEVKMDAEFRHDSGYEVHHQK
As to the kind of experiment: dot blot on nitrocellulose. As to the method: as §1

The target in test [6] is T2, Aβ(12-42) globulomer. The test is described as follows: dot blot on nitrocellulose. As for the experimental part:
as §1

Test [7] deals with T4, sAPPα (Sigma). As to the kind of experiment: dot blot densitometry, antibody 0.2 µg/ml; column sAPPα. As to the method: as §1
In test [8] the target is T3, Aβ(1-40) monomer. As to the kind of experiment: dot blot densitometry, antibody 0.2 µg/ml; column Aβ(1-40) monomer, 0.1% NH4OH. As to the method: as §1
The target in test [9] is T2, Aβ(12-42) globulomer. The test is described as follows: dot blot, antibody 0.2 µg/ml. As to the method:
Dot blot procedure: [0556] 1) 1 μl each of the different Aβ-standards (in their 5 serial dilutions) were dotted onto the nitrocellulose membrane in a distance of approximately 1 cm from each other. [0557] 2) The Aβ-standards dots were allowed to dry on the nitrocellulose membrane on air for at least 10 min at room temperature (RT)(=dot blot) [0558] 3) Blocking: [0559] The dot blot was incubated with 30 ml 5% low fat milk in TBS for 1.5 h at RT. [0560] 4) Washing: [0561] The blocking solution was discarded and the dot blot was incubated under shaking with 20 ml TTBS for 10 min at RT. [0562] 5) Antibody solution I: [0563] The washing buffer was discarded and the dot blot was incubated with antibody solution I for 2 h at RT [0564] 6) Washing: [0565] The antibody solution I was discarded and the dot blot was incubated under shaking with 20 ml TTBS for 10 min at RT. The washing solution was discarded and the dot blot was incubated under shaking with 20 ml TTBS for 10 min at RT. […] Quantitative evaluation was done using a densitometric analysis (GS800 densitometer (BioRad) and software package Quantity one, Version […] (BioRad)) of the dot-intensity. […] This threshold value was determined for every dot-blot independently. The calculated value indicates the relation between recognition of Aβ(20-42) globulomer and the respective Aβ form for the antibody given

B1: monoclonal antibody 7C6 (antibody, V domains shown)
VH: EVKLVESGGGLVKPGGSLKLSCAASGFTFSSYAMSWVRQTPAKRLEWVASIHNRGTIFYLDSVKGRFTISRDNVRNTLYLQMSSLRSEDTAIYYCTRGRSNSYAMDYWGQGTSVTVSS
VL: DVLVTQSPLSLPVRLGDQASISCRSTQTLVHRNGDTYLEWYLQKPGQSPKSLIYKVSNRFSGVPDRFSGSGSGTDFTLKISRVEAEDLGVYYCFQGSHVPYTFGGGTKLEIKR
notes: Mouse monoclonal antibody from hybridoma; also called ML13-7C6.1D4.4A9.5G8; hybridoma ATCC PTA-7240
B1: the “relation between recognition of Aβ(20-42) globulomer and the respective Aβ form” value (“relation between recognition” for short) in test [1] was 1; in [2] it was over 100000; in [3] it was over 100000; in [7] it was over 1000; in test [8], over 100000. Moreover, the binding result in test [4] was “no binding”; in [5] it was “no binding (tested: antibody 0.2 µg/ml; first dot 1 pmol)”; in test [6] it was “no binding”.

B2: monoclonal antibody 10F11 (antibody, V domains shown)
VH: QVQLQQSGPELVKPGASVKMSCKASGYTFTSYVMHWVKQRPGQGLEWIGYIYPYNDGTKYNEKFKGKATLTSDKSSSTVYMELSSLTSEDSTVYYCTVEGATWDGYFDVWGTGTTVTVSS
VL: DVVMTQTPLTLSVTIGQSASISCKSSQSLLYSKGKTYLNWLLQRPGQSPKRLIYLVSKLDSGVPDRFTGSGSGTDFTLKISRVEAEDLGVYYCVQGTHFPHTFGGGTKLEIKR
notes: Mouse monoclonal antibody from hybridoma; also called ML15-10F11.3D9; hybridoma ATCC PTA-7239
For the molecule B2, the “relation between recognition” value in test [1] is 1; in test [2], 12; in test [7] it was over 1000. For the same molecule, in test [5], the binding result was “no binding (tested: antibody 0.2 µg/ml; first dot 1 pmol)”.

B3: monoclonal antibody 7E5 (antibody, V domains shown)
VH: EVKLVESGGGLVQPGGSRKLSCAASGFTFSDYEMVWVRQAPGEGLEWVAYISSGSRTIHYADTVKGRFTISRDNPKNTLFLQMSSLRSEDTAMYYCARTLLRLHFDYWGQGTILTVSS
VL: DIVMSQSPSSLAVSVGEKVTMSCRSSQSLFYRSNQKNFLAWYQQKPGQSPKLLIYWASTRESGVPDRFTGSGSGTDFTLTISSVKAEDLAVYYCQQYYSYPWTFGGGTKLEIKR
notes: Mouse monoclonal antibody from hybridoma; also called ML15-7E5.5E12; hybridoma ATCC PTA-7809
Consider B3, for which the “relation between recognition” value was 1 in test [1]; over 100000 in test [2]; over 100000 in test [3]; over 1000 in test [7]; over 100000 in test [8]. In addition, the figures for the binding result in test [4], in test [5] and in test [6] were “no binding”, “no binding (tested: antibody 0.2 µg/ml; first dot 1 pmol)” and “no binding”, respectively.

B4: monoclonal antibody 4B7 (antibody, V domains shown)
VH: B3 VH
VL: B3 VL
notes: Mouse monoclonal antibody from hybridoma; also called ML15-4B7.3A6; hybridoma ATCC PTA-7242
Regarding B4, the “relation between recognition” value in [1] was 1; in test [2], over 100000; in [3], over 100000; in test [7], over 1000. For the same molecule, the binding result is recorded as “no binding” in test [4], “no binding (tested: antibody 0.2 µg/ml; first dot 1 pmol)” in test [5] and “no binding” in test [6].

B5: monoclonal antibody 10C1 (antibody, V domains shown)
VH: B3 VH with E43K, S52N, R56G
VL: B3 VL with R24K, R32S, S33R, R60G, Y98F
notes: Mouse monoclonal antibody from hybridoma; also called ML15-10C1.5C6.3H4; hybridoma ATCC PTA-7810
B5: the “relation between recognition” value is 1 in test [1]; over 100000 in [2]; over 100000 in test [3]; over 1000 in test [7]; over 100000 in [8]. The binding result in test [4] is given as “no binding”; in [5], “no binding (tested: antibody 0.2 µg/ml; first dot 1 pmol)”; in [6], “no binding”.

B6: monoclonal antibody 4D10 (antibody, V domains shown)
VH: QVQLKQSGPSLIQPSQSLSITCTVSGFSLTSYGVHWVRQSPGKGLEWLGVIWRGGRIDYNAAFMSRLSITKDNSKSQVFFKMNSLQADDTAIYYCARNSDVWGTGTTVTVSS
VL: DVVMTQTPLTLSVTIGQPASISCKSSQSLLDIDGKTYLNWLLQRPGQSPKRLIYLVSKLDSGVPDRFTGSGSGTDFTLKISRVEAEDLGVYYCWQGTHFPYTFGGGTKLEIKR
notes: Mouse monoclonal antibody from hybridoma; also called ML13-4D10.3F3; hybridoma ATCC PTA-7405
As to B6, the “relation between recognition” value in [1] is 1; in test [2], 29; in test [7], over 100. The binding result is listed as “no binding” in [4] and “no binding (tested: antibody 0.2 µg/ml; first dot 1 pmol)” in test [5].

B7: monoclonal antibody 5F7 (antibody, V domains shown)
VH: QVQLKQSGAELVRPGTSVKMSCKASGYTFTTFYIHWVKQRPGQGLEWIGMIGPGSGNTYYNEMFKDKATLTVDTSSSTAYMQLSSLTSEDSAVYFCARAKSARAAWFAYWGQGTLVTVSA
VL: DVLMTQTPLSLPVSLGDQASISCRSSQSVVQSNGNTYLEWYLQKPGQSPKLLIYKVSNRFSGVPDRFSGSGSGTDFTLKISRVEAEDLGVYYCFQGSHVPPTFGGGTKLEIKR
notes: Mouse monoclonal antibody from hybridoma, Protein A purified; also called mAb 5F7; ML15-5F7.5B10
In the case of B7, the “relation between recognition” value in [1] is 1; in [7] it was over 100; in test [8] it was over 10000. In addition, the binding result in [4] is “no binding”; in test [5], “no binding (tested: antibody 0.2 µg/ml; first dot 1 pmol)”; in [9], “binds”.

B8: monoclonal antibody 2F2 (antibody, V domains shown)
VH: B7 VH
VL: B7 VL
notes: Mouse monoclonal antibody from hybridoma; also called ML15-2F2.3E12; hybridoma ATCC PTA-7408
In the case of B8, the “relation between recognition” value was 1 in [1], over 10000 in [3], over 100 in test [7] and over 10000 in [8]. Further, the binding result in [4] is “no binding”; in test [5], “no binding (tested: antibody 0.2 µg/ml; first dot 1 pmol)”; in test [9], “binds”.

B9: monoclonal antibody 6A2 (antibody, V domains shown)
VH: B7 VH with K5Q, K38R, A102H
VL: B7 VL with S61F, G71R
notes: Mouse monoclonal antibody from hybridoma; also called ML15-6A2.4B10; hybridoma ATCC PTA-7409
Take B9: the binding result in test [5] was “no binding (tested: antibody 0.2 µg/ml; first dot 1 pmol)”. Further, the “relation between recognition” value in test [7] was over 1000.
